Measurements: paper PMC9461191 (Journal of Translational Medicine, 2022)

B1: utomilumab (antibody, V domains shown)
VH: EVQLVQSGAEVKKPGESLRISCKGSGYSFSTYWISWVRQMPGKGLEWMGKIYPGDSYTNYSPSFQGQVTISADKSISTAYLQWSSLKASDTAMYYCARGYGIFDYWGQGTLVTVSS
VL: SYELTQPPSVSVSPGQTASITCSGDNIGDQYAHWYQQKPGQSPVLVIYQDKNRPSGIPERFSGSNSGNTATLTISGTQAMDEADYYCATYTGFGSLAVFGGGTKLTVL
notes: IgG2; IgG2 mAb; also called PF-05082566; utomilumab-IgG2; source: Expi293F, transfected, purified (MabSelect PrismA)
B2: urelumab (antibody, V domains shown)
VH: QVQLQQWGAGLLKPSETLSLTCAVYGGSFSGYYWSWIRQSPEKGLEWIGEINHGGYVTYNPSLESRVTISVDTSKNQFSLKLSSVTAADTAVYYCARDYGPGNYDWYFDLWGRGTLVTVSS
VL: EIVLTQSPATLSLSPGERATLSCRASQSVSSYLAWYQQKPGQAPRLLIYDASNRATGIPARFSGSGSGTDFTLTISSLEPEDFAVYYCQQRSNWPPALTFGGGTKVEIK
notes: IgG4; IgG4 mAb; also called BMS-663513; urelumab-IgG4; source: Expi293F, transfected, purified (MabSelect PrismA)

How the values were obtained:
[1] = target: HuB6 (human); assay: SPR; HuB6 and human FcγRs; who was immobilised not given; n = 3
[2] = target: utomilumab; assay: flow cytometry on cells; conditions: Ab 10 µg/ml (highest point of the titration); antigen transfected into Expi293 cells; parent: est. 14000; read off a plot
[3] = target: HuB6; assay: flow cytometry on cells; conditions: Ab 10 µg/ml (highest point of the titration); antigen transfected into Expi293 cells; parent: est. 17000; read off a plot
[4] = target: urelumab; assay: flow cytometry on cells; conditions: Ab 10 µg/ml (highest point of the titration); antigen transfected into Expi293 cells; parent: est. 17000; read off a plot
[5] = target: T1, cynomolgus 4-1BB-mFc (Macaca fascicularis, UniProt A9YYE7); assay: ELISA; indirect ELISA; plates coated with 4-1BB-mFc (1 μg/mL mouse, 350 ng/mL cynomolgus) in carbonate buffer; serially diluted antibodies, room temperature 2 h; HRP goat anti-human Fc; conditions: both partners purified
T1 construct: cynomolgus monkey 4-1BB, UniProt A9YYE7, extracellular domain; also called Cy4-1BB; cynomolgus monkey 4-1BB; source: Expi293F, transfected, purified (MabSelect PrismA); not shown: Fc (mouse), C-terminal, kept

[6] = target: T2, mouse 4-1BB-ECD-mFc (Mus musculus, UniProt P20334); assay: as above; conditions: both partners purified
T2 construct: mouse 4-1BB, UniProt P20334, extracellular domain; also called Mu4-1BB; murine 4-1BB; source: Expi293F, transfected, purified (MabSelect PrismA); not shown: Fc (mouse), C-terminal, kept

[7] = target: T3, Hu4-1BB-His (Homo sapiens, UniProt Q07011); assay: BLI; Octet Red96, 25 °C; antibody loaded on AHC biosensors; Hu4-1BB-His 200-12.5 nM in 1 × PBS; 500 s association, 30 min dissociation; conditions: both partners purified
T3 construct: human 4-1BB (CD137, TNFRSF9), His-tagged, bought; No catalogue number is printed; also called human 4-1BB; source: bought: Acro biosystems

[8] = target: T4, human 4-1BB ECD (Homo sapiens, UniProt Q07011); assay: SPR; Biacore T200, 25 °C; human 4-1BB ECD amine-coupled on a CM5 chip to 300 RU; antibody from 80 μg/mL in two-fold dilutions injected at 30 μL/min; 1:1 Langmuir model; conditions: both partners purified
T4 construct: human 4-1BB (CD137, TNFRSF9), extracellular domain, coupled to the CM5 chip for SPR; also called CD137; TNFRSF9
T4 sequence (Q07011 24-186): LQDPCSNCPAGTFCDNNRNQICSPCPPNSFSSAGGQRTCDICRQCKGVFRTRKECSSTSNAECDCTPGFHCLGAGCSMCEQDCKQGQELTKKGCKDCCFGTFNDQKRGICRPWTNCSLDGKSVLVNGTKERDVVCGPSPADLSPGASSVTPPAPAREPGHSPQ

Sequence of HuB6 (human) (heavy, as listed by the source, chain 1 of 2): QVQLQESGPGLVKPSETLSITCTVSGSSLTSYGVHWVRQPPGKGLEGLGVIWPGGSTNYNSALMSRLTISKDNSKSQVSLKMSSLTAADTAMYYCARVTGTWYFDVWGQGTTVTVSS
Sequence of HuB6 (human) (light, as listed by the source, chain 2 of 2): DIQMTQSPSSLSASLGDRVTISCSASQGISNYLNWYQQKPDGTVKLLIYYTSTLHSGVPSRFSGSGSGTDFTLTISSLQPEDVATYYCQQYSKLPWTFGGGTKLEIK
T2 sequence (P20334 24-187): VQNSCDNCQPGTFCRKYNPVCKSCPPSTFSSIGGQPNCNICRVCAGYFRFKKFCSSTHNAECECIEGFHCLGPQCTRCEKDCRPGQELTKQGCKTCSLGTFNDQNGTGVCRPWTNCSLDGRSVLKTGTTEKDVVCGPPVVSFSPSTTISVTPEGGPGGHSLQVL

Row | Molecule | response [2] | response [3] | response [4] | binding result [6] | also measured
1 | human FcγRIA (from UniProt P12314 16-374) (receptor) | – | – | – | – | Kd [1]: 8.86 nM; koff [1]: 0.0045 s⁻¹; kon [1]: 531000 M⁻¹ s⁻¹
2 | wild-type (WT) human 4-1BB antigen on Expi293F cells (from UniProt Q07011) I132 | 3900 Mean FITC | 20000 Mean FITC | 17000 Mean FITC | – | –
3 | wild-type (WT) human 4-1BB antigen on Expi293F cells (from UniProt Q07011) M101 | 2600 Mean FITC | 19000 Mean FITC | 17000 Mean FITC | – | –
4 | wild-type (WT) human 4-1BB antigen on Expi293F cells (from UniProt Q07011) N42 | 13000 Mean FITC | 15000 Mean FITC | 900 Mean FITC | – | –
5 | B1 | – | – | – | no binding | EC50 [5]: 0.038 nM
6 | B2 | – | – | – | no binding | Kd [7]: 5.76 ± 0.85 nM; Kd [8]: 5.34 ± 0.49 nM
